The values below come from patent KR20220081857A (dated 2022).

Where a chain is given by its changes, count along the chain named. Numbers in names are those of the source.

T1: 인간 OX40L 단백질 (OX40L-his; ACROBiosystems Cat# OXL-H52Q8) (human, UniProt P23510 51-183)
T1 sequence: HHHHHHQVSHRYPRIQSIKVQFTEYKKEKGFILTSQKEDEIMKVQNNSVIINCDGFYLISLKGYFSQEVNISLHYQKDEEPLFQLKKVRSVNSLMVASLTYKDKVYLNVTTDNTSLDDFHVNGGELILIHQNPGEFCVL

B1: 이중 특이성 항체 Hu3F07-TNFαi HC (bispecific antibody)
heavy: not shown
light: DIVMTQSPLSLPVTLGEPASISCRSSQSLVHSNGNTYLHWYLQKPGQSPQLLIYKVSNRFSGVPDRFSGSGSGTDFTLKISRVEAEDVGVYYCSQSTHVPPTFGGGTKLEIKRTVAAPSVFIFPPSDEQLKSGTASVVCLLNNFYPREAKVQWKVDNALQSGNSQESVTEQDSKDSTYSLSSTLTLSKADYEKHKVYACEVTHQGLSSPVTKSFNRGEC
B2: 항 OX40L 항체 Hu3F07 (antibody, human IgG4 S228P, kappa, V domains shown)
VH: QVQLVQSGAEVKKPGASVKVSCKASGFTFPDYWMHWVRQAPGQGLEWMGEIDPPNGRTNYNEKFKSRVTMTRDTSISTAYMELSRLRSDDTAVYYCARGIYYVDYWGQGTTVTVSS
VL: DIVMTQSPLSLPVTLGEPASISCRSSQSLVHSNGNTYLHWYLQKPGQSPQLLIYKVSNRFSGVPDRFSGSGSGTDFTLKISRVEAEDVGVYYCSQSTHVPPTFGGGTKLEIKR
B3: 항 OX40L 항체 10H07 (antibody, human IgG4 S228P, kappa, V domains shown)
VH: QVYLQQSGAELVKPGASVKLSCKASGYTFTDYWMHWVKQRPGQGLEWIGEIDPGNGRTNYNEKFKNKATLSVDKSSNTAYMQFSSLTSEDSAVFYCASEGAGRGFPYWGQGTLVTVSA
VL: B2 VL with I2V, M4L, S7T, T14S, E17D, P18Q, Q50K, V88L, Y92F, P101W
B4: 항 OX40L 항체 21G07 (antibody, human IgG4 S228P, kappa, V domains shown)
VH: QVQLQQSGAELVKPGASVKLSCKASGYTFTNYWMQWVKQRPGQGLEWIGEIDPSDGRTNYNEKFKNKATLTVDRSSSTAYIKLSSLTSEDSAVYYCAREVSLRSMDYWGQGTSVTVSS
VL: B2 VL with M4L, T14S, E17D, P18Q, Q50K, V88L, Y92F, P101F, G105S
B5: reference 항-OX40L 항체 O4L (oxelumab VH/VL) (antibody, human IgG4 S228P, kappa, V domains shown)
VH: EVQLLESGGGLVQPGGSLRLSCAASGFTFNSYAMSWVRQAPGKGLEWVSIISGSGGFTYYADSVKGRFTISRDNSRTTLYLQMNSLRAEDTAVYYCAKDRLVAPGTFDYWGQGALVTVSS
VL: DIQMTQSPSSLSASVGDRVTITCRASQGISSWLAWYQQKPEKAPKSLIYAASSLQSGVPSRFSGSGSGTDFTLTISSLQPEDFATYYCQQYNSYPYTFGQGTKLEIKR
B6: 이중 특이성 항체 02C09-TNFαi HC (bispecific antibody)
heavy: not shown
light: DIQMTQSPSSLSASLGDRVTITCRASQSIGRWLAWYQQKPGNAPKLLIYKATILESGVPSRFSGSGSGTEFALTISSLQPDDFSAYYCQQYNSYPYTFGQGTKLEIKRTVAAPSVFIFPPSDEQLKSGTASVVCLLNNFYPREAKVQWKVDNALQSGNSQESVTEQDSKDSTYSLSSTLTLSKADYEKHKVYACEVTHQGLSSPVTKSFNRGEC
B7: 이중 특이성 항체 I3F07-TNFαi HC (bispecific antibody)
heavy: not shown
light: B1 light with M4L, T14S, E17D, P18Q, Q50K, V88L, Y92F, T107S

Chain of 인간 TNFα (ACROBiosystems TNF-H5228) (P01375 77-233 limits assumed): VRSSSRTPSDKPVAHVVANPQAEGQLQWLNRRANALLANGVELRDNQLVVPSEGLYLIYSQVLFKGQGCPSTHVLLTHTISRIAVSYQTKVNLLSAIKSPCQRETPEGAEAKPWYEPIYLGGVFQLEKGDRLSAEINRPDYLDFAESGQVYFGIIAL

For one assay, the target named is T1, 인간 OX40L 단백질 (OX40L-his; ACROBiosystems …). Put plainly: cell-based or functional assay.
As for B1, the “IC50 (nM), OX40L blockade assay” value was 0.21 nM and the “IC50 (μg/mL), OX40L blockade assay” value turned out to be 0.041 µg/mL.

As for B2, the “IC50 (nM), OX40L blockade assay” value was found to be 0.2 nM and the “IC50 (μg/mL), OX40L blockade assay” value worked out at 0.03 µg/mL.

For B3, the “IC50 (nM), OX40L blockade assay” value was 0.41 nM and the “IC50 (μg/mL), OX40L blockade assay” value was determined as 0.061 µg/mL.

As to B4, the “IC50 (nM), OX40L blockade assay” value was 0.85 nM and the “IC50 (μg/mL), OX40L blockade assay” value turned out to be 0.128 µg/mL.

On to B5, for which the “IC50 (nM), OX40L blockade assay” value turned out to be 1.95 nM and the “IC50 (μg/mL), OX40L blockade assay” value is 0.293 µg/mL.

As to B6, the “IC50 (nM), OX40L blockade assay” value came to 0.59 nM and the “IC50 (μg/mL), OX40L blockade assay” value is 0.117 µg/mL.

A further assay concerns the target 인간 TNFα (ACROBiosystems TNF-H5228) (human, UniProt P01375 77-233). Put plainly: cell-based or functional assay.
As to B7, the “IC50 (nM), TNFα blockade assay” value was 0.055 nM.

A further assay deals with T1, 인간 OX40L 단백질 (OX40L-his; ACROBiosystems …). In words: cell-based or functional assay. This is another data set of the same source.
As for B7, the “IC50 (nM), OX40L blockade assay” value came out at 0.91 nM.
